Publication doi:10.1101/2021.02.01.429088 (bioRxiv, 2021)
Like-named read-outs stand apart in the source and are kept apart here.

B1: T3D σ1 Tail-Body (25-291) (domain or fragment, mammalian orthoreovirus T3D (Dearing))
chain: GAMASKGLESRVSALEKTSQIHSDTILRITQGLDDANKRIIALEQSRDDLVASVSDAQLAISRLESSIGALQTVVNGLDSSVTQLGARVGQLETGLAELRVDHDNLVARVDTAERNIGSLTTELSTLTLRVTSIQADFESRISTLERTAVTSAGAPLSIRNNRMTMGLNDGLTLSGNNLAIRLPGNTGLNIQNGGLQFRFNTDQFQIVNNNLTLKTTVFDSINSRIGATEQSYVASAVTPLRLNSSTKVLDMLIDSSTLEINSSGQLTVRS
B2: T3D σ1 Body-Head (170-455), wild type (domain or fragment, mammalian orthoreovirus T3D (Dearing))
chain: GAMAVTSAGAPLSIRNNRMTMGLNDGLTLSGNNLAIRLPGNTGLNIQNGGLQFRFNTDQFQIVNNNLTLKTTVFDSINSRIGATEQSYVASAVTPLRLNSSTKVLDMLIDSSTLEINSSGQLTVRSTSPNLRYPIADVSGGIGMSPNYRFRQSMWIGIVSYSGSGLNWRVQVNSDIFIVDDYIHICLPAFDGFSIADGGDLSLNFVTGLLPPLLTGDTEPAFHNDVVTYGAQTVAIGLSSGGAPQYMSKNLWVEQWQDGVLRLRVEGGGSITHSNSKWPAMTVSYPRSFT
B3: T3D σ1 Head (293-455), wild type (domain or fragment, mammalian orthoreovirus T3D (Dearing))
chain: GAMASPNLRYPIADVSGGIGMSPNYRFRQSMWIGIVSYSGSGLNWRVQVNSDIFIVDDYIHICLPAFDGFSIADGGDLSLNFVTGLLPPLLTGDTEPAFHNDVVTYGAQTVAIGLSSGGAPQYMSKNLWVEQWQDGVLRLRVEGGGSITHSNSKWPAMTVSYPRSFT

What was measured:
[1] = biological target: the molecule itself; assay: SEC
[2] = biological target: the molecule itself; assay: SEC; remark: listed apart in the source

| Protein | stoichiometry N [1] | stoichiometry N [2] |
| --- | --- | --- |
| B1 | 3 | – |
| B2 | – | 3 |
| B3 | 3 | – |
